Substrate in data set [1]: CC1(C)S[C@@H]2[C@H](NC(=O)Cc3ccccc3)C(=O)N2[C@H]1C(=O)O
Description: (§1) Binding affinity for TEM-1 beta-lactamase. Particulars: Escherichia coli.

Substrate in data set [2]: CC(=O)OCC1=C(C(=O)O)N2C(=O)[C@@H](NC(=O)Cc3cccs3)[C@H]2SC1
The data set is described as §1. To be noted: Escherichia coli.

B1: Beta-lactamase TEM (Escherichia coli), P62593 (protein)
chain: MSIQHFRVALIPFFAAFCLPVFAHPETLVKVKDAEDQLGARVGYIELDLNSGKILESFRPEERFPMMSTFKVLLCGAVLSRVDAGQEQLGRRIHYSQNDLVEYSPVTEKHLTDGMTVRELCSAAITMSDNTAANLLLTTIGGPKELTAFLHNMGDHVTRLDRWEPELNEAIPNDERDTTMPAAMATTLRKLLTGELLTLASRQQLIDWMEADKVAGPLLRSALPAGWFIADKSGAGERGSRGIIAALGPDGKPSRIVVIYTTGSQATMDERNRQIAEIGASLIKHW
Turning to B1, the figures for the Km in data set [1] and in data set [2] were 75 µM and 347 µM, respectively.

The term Km denotes the substrate concentration at which the rate is half of its maximum.

The record behind these values is ChEMBL document CHEMBL1145182, “Molecular dynamics simulations of the TEM-1 beta-lactamase complexed with cephalothin” (J Med Chem, 2005).
